From article doi:10.1101/2020.07.09.196626

Columns and labels:
[1] = biological target: V5 epitope-tagged soluble ZIKV E, covalently stabilised dimer carrying A264C (sE-cvD) (Zika virus (strain ArD158095)); assay: non-reducing SDS-PAGE
[2] = biological target: ZIKV full-length E protein carrying A264C (covalent dimer), in virus-like particles (VLP-cvD) (Zika virus (strain PE243)); assay: non-reducing SDS-PAGE with western blot

Row | Substance | stoichiometry N [1] | stoichiometry N [2]
1 | V5 epitope-tagged soluble ZIKV E, covalently stabilised dimer carrying A264C (sE-cvD) (domain or fragment) | 2 | 
2 | ZIKV full-length E protein carrying A264C (covalent dimer), in virus-like particles (VLP-cvD) (natural protein) |  | 2
